Changes are numbered by the printed parent chain. Where two headings read alike, the source gives them in different places. Where no end group is shown, it is not given here. The star is where a group is joined. Biotin = O=C1N[C@H]2[C@H](CS[C@H]2CCCCC(=O)*)N1
What was measured:
[1] = biological target: T1, Peptide A (human PAR-2), unbiotinylated (Human); test: SPR, antibody captured
T1 construct: also called Peptide A No Biotin
T1 peptide: GTNRSSKGRSLIGKVDGT
Method: (§1) Equilibrium dissociation constants (KD values) for antigen binding to selected purified PAR-2 antibodies were determined by surface kinetics using a real-time surface plasmon resonance biosensor assay. Antibody was captured on either a rabbit anti-mouse IgG polyclonal antibody (GE Healthcare, Piscataway, N.J.) surface or a goat anti-human IgG polyclonal antibody (Jackson Immuno Research Lab, West Grove, Pa.) surface created through direct amine chemical coupling to a BIACORE™ CM5 sensor chip to form a captured antibody surface. […] Antigen-antibody binding and dissociation were monitored in real time at room temperature. Kinetic analysis was performed to calculate KD and half-life of antigen/antibody complex dissociation (Table 10). For those antibodies where no T_{1/2} value is shown, steady state analysis was used to calculate the KD value. NB: no binding observed under current experimental conditions. ND: not determined.

[2] = biological target: T2, Peptide A (human PAR-2), N-terminal biotinylated (Human, N-terminal biotin via G4S linker); test: peptide ELISA titration
T2 construct: also called Peptide A N-Term
T2 peptide: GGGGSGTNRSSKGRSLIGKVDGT
Method: (§2) Anti-PAR-2 antibodies were tested for their ability to bind to the PAR-2 peptides. Various PAR-2 Peptides (Table 3) were coated onto 96-well plates at a concentration of 2 μg/ml and incubated overnight followed by blocking in a suitable blocking agent for one hour. […] Purified anti-PAR-2 antibodies were added to the plate coated with PAR-2 peptides to a final concentration ranging from 0.2 to 2.0 μg/ml and incubated for one hour at room temperature. Detection of bound antibodies was determined with Horse-Radish Peroxidase (HRP) conjugated anti-mouse or human IgG (Jackson Immuno Research Lab, West Grove, Pa.) and developed by standard colorimetric response using tetramethylbenzidine (TMB) substrate. Absorbance was read at OD₄₅₀ for 0.1 second.
(§3) In another experiment, selected anti-PAR-2 antibodies cloned onto human IgG4 were tested for binding to unbiotinylated and biotinylated forms of PAR-2 peptides (Peptides A, E, F and G; as described above). […] Absorbance values at 450 nm were analyzed using a sigmoidal dose-response model in GraphPad Prism (GraphPad Software, Inc., La Jolla, Calif.) and EC₅₀ values were reported (Table 9). EC₅₀ values are defined as the antibody concentration required to achieve 50% maximal binding to PAR-2 peptide.

[3] = biological target: T3, Peptide G (rat PAR-2), unbiotinylated (Rat (Rattus norvegicus)); test: peptide ELISA titration
T3 construct: also called Peptide G No Biotin
T3 peptide: GPNSKGRSLIGRLDTP
Method: as §2, §3

[4] = biological target: T4, Peptide G (rat PAR-2), N-terminal biotinylated (Rat (Rattus norvegicus), N-terminal biotin via G4S linker); test: peptide ELISA titration
T4 construct: also called Peptide G N-Term
T4 peptide: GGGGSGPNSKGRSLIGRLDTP
Method: as §2, §3

[5] = biological target: T5, Peptide A (human PAR-2), C-terminal biotinylated (Human, C-terminal biotin via G4S linker); test: peptide ELISA titration
T5 construct: also called Peptide A C-Term
Method: as §2, §3

[6] = biological target: T6, Peptide E (mouse PAR-2), N-terminal biotinylated (Mouse (Mus musculus), N-terminal biotin via G4S linker); test: peptide ELISA titration
T6 construct: also called Peptide E N-Term
T6 peptide: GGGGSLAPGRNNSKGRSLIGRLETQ
Method: as §2, §3

[7] = biological target: T7, Peptide E (mouse PAR-2), unbiotinylated (Mouse (Mus musculus)); test: peptide ELISA titration
T7 construct: also called Peptide E No Biotin
T7 peptide: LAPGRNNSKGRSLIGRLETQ
Method: as §2, §3

[8] = biological target: T8, Peptide F (monkey PAR-2), N-terminal biotinylated (Monkey (Macaca mulatta), N-terminal biotin via G4S linker); test: peptide ELISA titration
T8 construct: also called Peptide F N-Term
T8 sequence (peptide, as listed by the source): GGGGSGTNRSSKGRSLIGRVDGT
Method: as §2, §3

[9] = biological target: T1, Peptide A (human PAR-2), unbiotinylated; test: peptide ELISA titration
Method: as §2, §3

[10] = biological target: T8, Peptide F (monkey PAR-2), N-terminal …; test: SPR, antibody captured
Method: as §1

[11] = biological target: T9, full length human PAR-2 (human, UniProt P55085 26-397); test: cell-based or functional assay
T9 sequence (P55085 26-397 G138A limits assumed): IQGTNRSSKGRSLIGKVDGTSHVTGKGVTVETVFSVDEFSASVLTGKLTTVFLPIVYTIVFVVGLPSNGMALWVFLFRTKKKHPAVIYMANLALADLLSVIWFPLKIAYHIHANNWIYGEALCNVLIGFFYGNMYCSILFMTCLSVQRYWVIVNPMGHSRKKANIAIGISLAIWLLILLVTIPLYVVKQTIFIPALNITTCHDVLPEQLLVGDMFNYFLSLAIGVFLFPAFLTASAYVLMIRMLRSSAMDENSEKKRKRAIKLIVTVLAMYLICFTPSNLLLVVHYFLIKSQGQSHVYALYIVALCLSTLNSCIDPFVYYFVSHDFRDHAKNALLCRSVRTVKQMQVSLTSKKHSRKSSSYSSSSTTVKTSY

[12] = biological target: T9, full length human PAR-2; test: cell-based or functional assay; remark: listed apart in the source
[13] = biological target: T10, Peptide D (N-terminal domain of human PAR-2-mouse IgG2a) (Human); test: peptide ELISA
T10 chain: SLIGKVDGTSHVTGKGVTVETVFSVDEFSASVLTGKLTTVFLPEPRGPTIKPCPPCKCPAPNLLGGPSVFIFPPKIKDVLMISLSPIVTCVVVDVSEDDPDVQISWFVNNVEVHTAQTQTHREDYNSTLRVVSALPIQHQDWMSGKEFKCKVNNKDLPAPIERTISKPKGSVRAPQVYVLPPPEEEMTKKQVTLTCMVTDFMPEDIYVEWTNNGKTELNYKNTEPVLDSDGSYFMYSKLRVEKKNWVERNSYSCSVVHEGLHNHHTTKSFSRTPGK

[14] = biological target: T2, Peptide A (human PAR-2), N-terminal …; test: peptide ELISA
Method: as §2

[15] = biological target: T11, Peptide C (human PAR-2), N-terminal biotinylated (Human); test: peptide ELISA
T11 construct: also called Peptide C N-Term
T11 peptide: Biotin-GGGGSSLIGKV
Method: as §2

[16] = biological target: T12, Peptide B (human PAR-2), N-terminal biotinylated (Human); test: peptide ELISA
T12 construct: also called Peptide B N-Term
T12 peptide: Biotin-GGGGSSLIGKVDGTSHVTG
Method: as §2

[17] = biological target: T13, Peptide B (human PAR-2), C-terminal biotinylated (Human, not fully specified); test: peptide ELISA
T13 construct: also called Peptide B C-Term
T13 peptide: SLIGKVDGTSHVTGGGGGS-biotin
Method: as §2

[18] = biological target: T5, Peptide A (human PAR-2), C-terminal …; test: peptide ELISA
Method: as §2

[19] = biological target: T14, Peptide C (human PAR-2), C-terminal biotinylated (Human); test: peptide ELISA
T14 construct: also called Peptide C C-Term
T14 peptide: SLIGKVGGGGS-biotin
Method: as §2

[20] = biological target: T1, Peptide A (human PAR-2), unbiotinylated; test: peptide ELISA
Method: as §2

[21] = biological target: T15, Peptide B (human PAR-2), unbiotinylated (Human); test: peptide ELISA
T15 construct: also called Peptide B No Biotin
T15 peptide: SLIGKVDGTSHVTG
Method: as §2

[22] = biological target: T15, Peptide B (human PAR-2), unbiotinylated; test: SPR, antibody captured
Method: as §1

[23] = biological target: T13, Peptide B (human PAR-2), C-terminal …; test: SPR, peptide immobilized
Method: (§4) In another series of experiments, equilibrium dissociation constants (KD values) for purified antibody binding to selected biotinylated and unbiotinylated forms of PAR-2 peptides were determined by surface kinetics using a real-time surface plasmon resonance biosensor assay. Neutravidin (Pierce, Rockford, Ill.) was covalently coupled to the surface of a Biacore™ C1 chip or CM5 chip using amine coupling chemistry. Biotinylated (N-Term or C-Term) PAR-2 peptides (Peptides A and B) were immobilized on the surface via the high affinity binding interaction between biotin and the amine coupled Neutravidin.
(§5) In a first experiment using this format, varying concentrations (ranging from 5 to 100 μg/ml) of purified antibody were injected at a rate of 50 μl/min over a surface coated with immobilized peptide at low-density (<1RU) for 300 seconds. Antibody-peptide binding and dissociation was monitored in real time 25° C.

[24] = biological target: T5, Peptide A (human PAR-2), C-terminal …; test: SPR, peptide immobilized
Method: as §4, §5

[25] = biological target: T9, full length human PAR-2; test: cell-based or functional assay; remark: listed apart in the source
[26] = biological target: T9, full length human PAR-2; test: cell ELISA, 10 ug/ml antibody
Source text: HEK293 cells were transfected with an NF-κB-luciferase-IRES-eGFP reporter plasmid. […] A clonal cell line, named D9, having low background levels of luciferase activity and high levels of eGFP when induced with IL-1β was made by a series of successive sorts of cell populations using flow cytometry. The 293/D9 cell line was then separately transfected with human PAR-2 or mouse PAR-2 to create the stable cell lines 293/D9/h PAR-2rec and 293/D9/m PAR-2rec, respectively.
Binding of anti-PAR-2 antibodies to 293/D9/hPAR-2rec cells was determined by ELISA. 293/D9 and 293/D9/hPAR-2rec cells were plated at a density of 5×10⁴ cells/well in media and incubated overnight at 37° C. and 5% CO₂. Purified antibody was added to the cells to a final concentration of 10 μg/ml and incubated at room temperature for one hour. Cells were then fixed and washed before detection of bound antibodies with HRP conjugated anti-mouse IgG and developed by standard colorimetric response using TMB substrate. Absorbance was read at OD₄₅₀ for 0.1 second.

B1: H4H578P (antibody, human IgG4, V domains shown)
VH: QVQLVESGGGVVQPGMSLRLSCAASGFTFRRYGMHWVRQAPGKGLEWVAVIWYDGSNKYYVDSVKGRFTISRDNSKNTLYLQMNSLRAEDTAVYYCASEITVGDWFDPWGQGTLVTVSS
VL: AIQMTQSPSSLSASVGDRVTITCRASQGIRNDLGWYQQKPGKAPKLLIYAASSLHSGVPSRFSGSGSGTDFTLTISSLQPEDFATYYCLQDFNYPLTFGGGTKVEIK
notes: also called H1H578P variable regions
[1]
  Kd: 245 nM
  T1/2: 0.17 min
[2]
  EC50: 0.062 nM
[3]
  EC50: 0.046 nM
[4]
  EC50: 0.081 nM
[5]
  EC50: 0.04 nM
[6]
  EC50: 0.09 nM
[7]
  EC50: 2.78 nM
[8]
  EC50: 0.036 nM
[9]
  EC50: 0.034 nM

B2: H4H591N (antibody, human IgG4, V domains shown)
VH: EVQLLESGGGLVQPGGSLRLSCATSGFTFSRYTMTWVRQAPGKGLFWVSGIGGSGGRAYYADSVKGRFTLSRDNSKNTLYLQMNSLRAEDTAVYYCAKEGDSGYDLDYWGRGTLVTVSS
VL: DIQMTQYPSSLSASVGDRVTITCRARQGISNYLAWLQQKPGKAPKSLIYAASSLQRGVPSKFSGSGSGTDFTLTISSLQPEDSATYYCQQYKISPLTFGGGTKVEIK
notes: also called H2M591N variable regions
[10]
  Kd: 8.54 nM
  T1/2: 21 min
[2]
  EC50: 0.022 nM
[5]
  EC50: 0.016 nM
[8]
  EC50: 0.011 nM
[9]
  EC50: 0.01 nM
[11]
  IC50, NF-kB-luciferase, 20 nM Trypsin: 204 nM
[12]
  IC50, NF-kB-luciferase, 10 nM Human Trypsin 1: 105 nM
  IC50, NF-kB-luciferase, 200 nM Factor Xa: 74.6 nM
  IC50, NF-kB-luciferase, 750 nM Lung Tryptase: 62.9 nM
[13]
  binding result: binds

B3: H2M618N (antibody, V domains shown)
VH: EVQLLESGGGLVQPGGSLRLSCAASGFTFRSYTMTWVRQAPGKGLDWVSGITDSGAGTYYGDSVKGRFTISRDNSKNTLYLQMNSLRAEDTAVYYCVKEGDSGYDLDYWGQGTLVTVSS
VL: B2 VL with Y7S, R26S, N31T, A51T, R56S, G66R, S83F, I93S
notes: chimeric: human variable, mouse constant domains
[14]
  OD450: 1 to 4 od
[15]
  OD450: 0 to 0.09 od
[16]
  OD450: 1 to 4 od
[17]
  OD450: 1 to 4 od
[18]
  OD450: 1 to 4 od
[19]
  OD450: 0 to 0.09 od
[20]
  OD450: 1 to 4 od
[21]
  OD450: 1 to 4 od
[1]
  Kd: 9.62 nM
  T1/2: 6.7 min
[22]
  Kd: 126 nM
  T1/2: 3.5 min
[23]
  Kd: 2.32 nM
  T1/2: 60 min
[24]
  Kd: 1.8 nM
  T1/2: 79 min
[25]
  IC50, NF-kB-luciferase, 10 nM Human Trypsin 1: 154 nM
  IC50, NF-kB-luciferase, 10 nM Trypsin: 12.4 nM
  IC50, NF-kB-luciferase, 20 nM Trypsin: 70 nM
  IC50, NF-kB-luciferase, 75 nM Trypsin: 7.8 nM
  IC50, NF-kB-luciferase, 200 nM Factor Xa: 54.2 nM
  IC50, NF-kB-luciferase, 250 nM Trypsin: 6.6 nM
  IC50, NF-kB-luciferase, 750 nM Lung Tryptase: 7 nM
[26]
  A450 ratio (293/D9/hPAR-2rec to 293/D9 cells): 2.44

B4: H4H618N (antibody, human IgG4, V domains shown)
VH: B3 VH
VL: B2 VL with Y7S, R26S, N31T, A51T, R56S, G66R, S83F, I93S
notes: also called H2M618N variable regions
[10]
  Kd: 13.8 nM
  T1/2: 5 min
[2]
  EC50: 0.021 nM
[5]
  EC50: 0.016 nM
[8]
  EC50: 0.011 nM
[9]
  EC50: 0.009 nM
[11]
  IC50, NF-kB-luciferase, 20 nM Trypsin: 50.2 nM
[12]
  IC50, NF-kB-luciferase, 10 nM Human Trypsin 1: 92.2 nM
  IC50, NF-kB-luciferase, 200 nM Factor Xa: 47.2 nM
  IC50, NF-kB-luciferase, 750 nM Lung Tryptase: 8.5 nM
[13]
  binding result: binds

— patent US20110059095A1 (Regeneron, published 2011)
